Data published in patent publication US20230265151A1, “GIP/GLP1 CO-AGONIST COMPOUNDS” (priority 2020, published 2023).
*1 amine or outer side, *2 acyl side, *3 side chain or, on linkers, in order; H or OH if unused. Where no end group is shown, it is not given here. Side-chain parts run from the residue outwards. [ ]: non-standard residue; d: D form. The star is where a group is joined. Butanoyl(4-(4-tBuPh)) = CC(C)(C)c1ccc(CCCC(=O)*)cc1; αMePhe(2-F) = C[C@](N)(Cc1ccccc1F)C(=O)O; γGlu = O=C(O)[C@H](CCC(=O)[*:2])N[*:1]; C14 diacid = O=C(O)CCCCCCCCCCCCC(=O)*; εLys = N[C@@H](CCCCN[*:1])C(=O)[*:2]; αMeY = C[C@](N)(Cc1ccc(O)cc1)C(=O)O; αMeF = C[C@](N)(Cc1ccccc1)C(=O)O; αMeL = CC(C)C[C@](C)(N)C(=O)O; Lauroyl = CCCCCCCCCCCC(=O)*; Orn = NCCC[C@H](N)C(=O)O; Dap = NC[C@H](N)C(=O)O; AEEA = NCCOCCOCC(=O)O; Aib = CC(C)(N)C(=O)O

T1: human glucose-dependent insulinotropic polypeptide (GIP) receptor (human, UniProt P48546 22-466)
T1 sequence (looked up): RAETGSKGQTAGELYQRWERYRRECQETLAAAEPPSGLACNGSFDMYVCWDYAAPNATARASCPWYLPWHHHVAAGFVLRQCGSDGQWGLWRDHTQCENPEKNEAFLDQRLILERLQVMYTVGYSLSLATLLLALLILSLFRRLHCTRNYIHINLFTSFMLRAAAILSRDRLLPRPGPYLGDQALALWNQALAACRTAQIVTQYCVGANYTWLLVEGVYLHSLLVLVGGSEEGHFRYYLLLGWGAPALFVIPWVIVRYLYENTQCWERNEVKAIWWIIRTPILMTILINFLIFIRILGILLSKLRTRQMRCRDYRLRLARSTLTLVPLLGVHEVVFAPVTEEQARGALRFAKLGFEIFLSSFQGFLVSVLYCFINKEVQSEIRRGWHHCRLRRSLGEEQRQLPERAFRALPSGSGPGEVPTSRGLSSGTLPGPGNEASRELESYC

B1: Example 176 (peptide)
peptide: Y[Aib]EGT[αMeF]TSDV[Aib]I[αMeL]LD[Orn]K([AEEA-AEEA-γGlu-Lauroyl])AQ[Aib]EFI[dE][αMeY]LIEGGK([AEEA-AEEA-γGlu-Lauroyl])SSGAPPPS-NH2
modifications: N-terminus assumed
SMILES: CCCCCCCCCCCC(=O)N[C@@H](CCC(=O)NCCOCCOCC(=O)NCCOCCOCC(=O)NCCCC[C@H](NC(=O)CNC(=O)CNC(=O)[C@H](CCC(=O)O)NC(=O)[C@@H](NC(=O)[C@H](CC(C)C)NC(=O)[C@](C)(Cc1ccc(O)cc1)NC(=O)[C@@H](CCC(=O)O)NC(=O)[C@@H](NC(=O)[C@H](Cc1ccccc1)NC(=O)[C@H](CCC(=O)O)NC(=O)C(C)(C)NC(=O)[C@H](CCC(N)=O)NC(=O)[C@H](C)NC(=O)[C@H](CCCCNC(=O)COCCOCCNC(=O)COCCOCCNC(=O)CC[C@H](NC(=O)CCCCCCCCCCC)C(=O)O)NC(=O)[C@H](CCCN)NC(=O)[C@H](CC(=O)O)NC(=O)[C@H](CC(C)C)NC(=O)[C@](C)(CC(C)C)NC(=O)[C@@H](NC(=O)C(C)(C)NC(=O)[C@@H](NC(=O)[C@H](CC(=O)O)NC(=O)[C@H](CO)NC(=O)[C@@H](NC(=O)[C@](C)(Cc1ccccc1)NC(=O)[C@@H](NC(=O)CNC(=O)[C@H](CCC(=O)O)NC(=O)C(C)(C)NC(=O)[C@@H](N)Cc1ccc(O)cc1)[C@@H](C)O)[C@@H](C)O)C(C)C)[C@@H](C)CC)[C@@H](C)CC)[C@@H](C)CC)C(=O)N[C@@H](CO)C(=O)N[C@@H](CO)C(=O)NCC(=O)N[C@@H](C)C(=O)N1CCC[C@H]1C(=O)N1CCC[C@H]1C(=O)N1CCC[C@H]1C(=O)N[C@@H](CO)C(N)=O)C(=O)O
B2: Example 212 (peptide)
peptide: YXEGTXTSDVXIXLDXKAQXEFIXXLIEGGKSSGAPPPS
modifications: Aib2, αMeF(2F)6, αMeS11, αMeL13, Orn16, K17(Z), Aib20, D-Glu24, αMeY25, K31(Z), C-terminal NH2; Z = AEEA2-(γ-Glu)-CO-(CH2)12-CO2H
B3: Example 201 (peptide)
peptide: Y[Aib]EGT[αMePhe(2-F)]TSDV[Dap]I[αMeL]LD[Orn]K([AEEA-AEEA-γGlu-C14 diacid])AQ[Aib]EFI[dE][αMeY]LIEGGK([AEEA-AEEA-γGlu-C14 diacid])SSGAPPPS-NH2
modifications: N-terminus assumed
SMILES: CC[C@H](C)[C@H](NC(=O)[C@H](CC(C)C)NC(=O)[C@](C)(Cc1ccc(O)cc1)NC(=O)[C@@H](CCC(=O)O)NC(=O)[C@@H](NC(=O)[C@H](Cc1ccccc1)NC(=O)[C@H](CCC(=O)O)NC(=O)C(C)(C)NC(=O)[C@H](CCC(N)=O)NC(=O)[C@H](C)NC(=O)[C@H](CCCCNC(=O)COCCOCCNC(=O)COCCOCCNC(=O)CC[C@H](NC(=O)CCCCCCCCCCCCC(=O)O)C(=O)O)NC(=O)[C@H](CCCN)NC(=O)[C@H](CC(=O)O)NC(=O)[C@H](CC(C)C)NC(=O)[C@](C)(CC(C)C)NC(=O)[C@@H](NC(=O)[C@H](CN)NC(=O)[C@@H](NC(=O)[C@H](CC(=O)O)NC(=O)[C@H](CO)NC(=O)[C@@H](NC(=O)[C@](C)(Cc1ccccc1F)NC(=O)[C@@H](NC(=O)CNC(=O)[C@H](CCC(=O)O)NC(=O)C(C)(C)NC(=O)[C@@H](N)Cc1ccc(O)cc1)[C@@H](C)O)[C@@H](C)O)C(C)C)[C@@H](C)CC)[C@@H](C)CC)C(=O)N[C@@H](CCC(=O)O)C(=O)NCC(=O)NCC(=O)N[C@@H](CCCCNC(=O)COCCOCCNC(=O)COCCOCCNC(=O)CC[C@H](NC(=O)CCCCCCCCCCCCC(=O)O)C(=O)O)C(=O)N[C@@H](CO)C(=O)N[C@@H](CO)C(=O)NCC(=O)N[C@@H](C)C(=O)N1CCC[C@H]1C(=O)N1CCC[C@H]1C(=O)N1CCC[C@H]1C(=O)N[C@@H](CO)C(N)=O
B4: Example 164 (peptide)
peptide: Y[Aib]EGT[αMePhe(2-F)]TSDV[Aib]I[αMeL]LD[Orn]K([εLys-γGlu-C14 diacid])AQ[Aib]EFI[dE][αMeY]LIEGGK([εLys-γGlu-C14 diacid])SSGAPPPS-NH2
modifications: N-terminus assumed
SMILES: CC[C@H](C)[C@H](NC(=O)[C@H](CC(C)C)NC(=O)[C@](C)(Cc1ccc(O)cc1)NC(=O)[C@@H](CCC(=O)O)NC(=O)[C@@H](NC(=O)[C@H](Cc1ccccc1)NC(=O)[C@H](CCC(=O)O)NC(=O)C(C)(C)NC(=O)[C@H](CCC(N)=O)NC(=O)[C@H](C)NC(=O)[C@H](CCCCNC(=O)[C@@H](N)CCCCNC(=O)CC[C@H](NC(=O)CCCCCCCCCCCCC(=O)O)C(=O)O)NC(=O)[C@H](CCCN)NC(=O)[C@H](CC(=O)O)NC(=O)[C@H](CC(C)C)NC(=O)[C@](C)(CC(C)C)NC(=O)[C@@H](NC(=O)C(C)(C)NC(=O)[C@@H](NC(=O)[C@H](CC(=O)O)NC(=O)[C@H](CO)NC(=O)[C@@H](NC(=O)[C@](C)(Cc1ccccc1F)NC(=O)[C@@H](NC(=O)CNC(=O)[C@H](CCC(=O)O)NC(=O)C(C)(C)NC(=O)[C@@H](N)Cc1ccc(O)cc1)[C@@H](C)O)[C@@H](C)O)C(C)C)[C@@H](C)CC)[C@@H](C)CC)C(=O)N[C@@H](CCC(=O)O)C(=O)NCC(=O)NCC(=O)N[C@@H](CCCCNC(=O)[C@@H](N)CCCCNC(=O)CC[C@H](NC(=O)CCCCCCCCCCCCC(=O)O)C(=O)O)C(=O)N[C@@H](CO)C(=O)N[C@@H](CO)C(=O)NCC(=O)N[C@@H](C)C(=O)N1CCC[C@H]1C(=O)N1CCC[C@H]1C(=O)N1CCC[C@H]1C(=O)N[C@@H](CO)C(N)=O
B5: Example 165 (peptide)
peptide: Y[Aib]EGT[αMePhe(2-F)]TSDV[Aib]I[αMeL]LD[Orn]K([εLys-εLys-γGlu-C14 diacid])AQ[Aib]EFI[dE][αMeY]LIEGGK([εLys-εLys-γGlu-C14 diacid])SSGAPPPS-NH2
modifications: N-terminus assumed
SMILES: CC[C@H](C)[C@H](NC(=O)[C@H](CC(C)C)NC(=O)[C@](C)(Cc1ccc(O)cc1)NC(=O)[C@@H](CCC(=O)O)NC(=O)[C@@H](NC(=O)[C@H](Cc1ccccc1)NC(=O)[C@H](CCC(=O)O)NC(=O)C(C)(C)NC(=O)[C@H](CCC(N)=O)NC(=O)[C@H](C)NC(=O)[C@H](CCCCNC(=O)[C@@H](N)CCCCNC(=O)[C@@H](N)CCCCNC(=O)CC[C@H](NC(=O)CCCCCCCCCCCCC(=O)O)C(=O)O)NC(=O)[C@H](CCCN)NC(=O)[C@H](CC(=O)O)NC(=O)[C@H](CC(C)C)NC(=O)[C@](C)(CC(C)C)NC(=O)[C@@H](NC(=O)C(C)(C)NC(=O)[C@@H](NC(=O)[C@H](CC(=O)O)NC(=O)[C@H](CO)NC(=O)[C@@H](NC(=O)[C@](C)(Cc1ccccc1F)NC(=O)[C@@H](NC(=O)CNC(=O)[C@H](CCC(=O)O)NC(=O)C(C)(C)NC(=O)[C@@H](N)Cc1ccc(O)cc1)[C@@H](C)O)[C@@H](C)O)C(C)C)[C@@H](C)CC)[C@@H](C)CC)C(=O)N[C@@H](CCC(=O)O)C(=O)NCC(=O)NCC(=O)N[C@@H](CCCCNC(=O)[C@@H](N)CCCCNC(=O)[C@@H](N)CCCCNC(=O)CC[C@H](NC(=O)CCCCCCCCCCCCC(=O)O)C(=O)O)C(=O)N[C@@H](CO)C(=O)N[C@@H](CO)C(=O)NCC(=O)N[C@@H](C)C(=O)N1CCC[C@H]1C(=O)N1CCC[C@H]1C(=O)N1CCC[C@H]1C(=O)N[C@@H](CO)C(N)=O
B6: Example 175 (peptide)
peptide: Y[Aib]EGT[αMePhe(2-F)]TSDV[Aib]I[αMeL]LD[Orn]K([AEEA-AEEA-γGlu-Lauroyl])AQ[Aib]EFI[dE][αMeY]LIEGGK([AEEA-AEEA-γGlu-Lauroyl])SSGAPPPS-NH2
modifications: N-terminus assumed
SMILES: CCCCCCCCCCCC(=O)N[C@@H](CCC(=O)NCCOCCOCC(=O)NCCOCCOCC(=O)NCCCC[C@H](NC(=O)CNC(=O)CNC(=O)[C@H](CCC(=O)O)NC(=O)[C@@H](NC(=O)[C@H](CC(C)C)NC(=O)[C@](C)(Cc1ccc(O)cc1)NC(=O)[C@@H](CCC(=O)O)NC(=O)[C@@H](NC(=O)[C@H](Cc1ccccc1)NC(=O)[C@H](CCC(=O)O)NC(=O)C(C)(C)NC(=O)[C@H](CCC(N)=O)NC(=O)[C@H](C)NC(=O)[C@H](CCCCNC(=O)COCCOCCNC(=O)COCCOCCNC(=O)CC[C@H](NC(=O)CCCCCCCCCCC)C(=O)O)NC(=O)[C@H](CCCN)NC(=O)[C@H](CC(=O)O)NC(=O)[C@H](CC(C)C)NC(=O)[C@](C)(CC(C)C)NC(=O)[C@@H](NC(=O)C(C)(C)NC(=O)[C@@H](NC(=O)[C@H](CC(=O)O)NC(=O)[C@H](CO)NC(=O)[C@@H](NC(=O)[C@](C)(Cc1ccccc1F)NC(=O)[C@@H](NC(=O)CNC(=O)[C@H](CCC(=O)O)NC(=O)C(C)(C)NC(=O)[C@@H](N)Cc1ccc(O)cc1)[C@@H](C)O)[C@@H](C)O)C(C)C)[C@@H](C)CC)[C@@H](C)CC)[C@@H](C)CC)C(=O)N[C@@H](CO)C(=O)N[C@@H](CO)C(=O)NCC(=O)N[C@@H](C)C(=O)N1CCC[C@H]1C(=O)N1CCC[C@H]1C(=O)N1CCC[C@H]1C(=O)N[C@@H](CO)C(N)=O)C(=O)O

These binders were tested against human glucagon-like peptide-1 (GLP-1) receptor (human, UniProt P43220 24-463) (assay: cell-based or functional assay).

Binder	cAMP EC50 [pM]	cAMP Emax [%]
Y[Aib]EGT[αMePhe(2-F)]TSDV[Aib]I[αMeL]LD[Orn]K([AEEA-AEEA-εLys-C14 diacid])AQ[Aib]EFI[dE][αMeY]LIEGGK([AEEA-AEEA-εLys-C14 diacid])SSGAPPPS-NH2 [Example 163]	199	86.3
B1	298	–
B2	265	–
B3	487	–
B4	236	–
Y[Aib]EGT[αMePhe(2-F)]TSDV[Aib]I[αMeL]LD[Orn]K([AEEA-AEEA-γGlu-Butanoyl(4-(4-tBuPh))])AQ[Aib]EFI[dE][αMeY]LIEGGK([AEEA-AEEA-γGlu-Butanoyl(4-(4-tBuPh))])SSGAPPPS-NH2 [Example 177]	178	–
B5	291	–
B6	227	91.1

These binders were tested against T1, human glucose-dependent insulinotropic … (assay: cell-based or functional assay).

Binder	cAMP EC50 [pM]	cAMP Emax [%]
Y[Aib]EGT[αMePhe(2-F)]TSDV[Aib]I[αMeL]LD[Orn]K([AEEA-AEEA-εLys-C14 diacid])AQ[Aib]EFI[dE][αMeY]LIEGGK([AEEA-AEEA-εLys-C14 diacid])SSGAPPPS-NH2 [Example 163]	42.7	98.2
B1	48.5	89.3
B2	38.5	100
B3	188	92.2
B4	46.4	95.8
Y[Aib]EGT[αMePhe(2-F)]TSDV[Aib]I[αMeL]LD[Orn]K([AEEA-AEEA-γGlu-Butanoyl(4-(4-tBuPh))])AQ[Aib]EFI[dE][αMeY]LIEGGK([AEEA-AEEA-γGlu-Butanoyl(4-(4-tBuPh))])SSGAPPPS-NH2 [Example 177]	43.3	113
B5	44.2	96.1
B6	33.7	100
